Data from patent US20260265393A1 (SHANGHAI CELGEN BIO PHARMACEUTICAL, published 2026).
“And” between values parts separate entries of the source, which are not always exact repeats. Equal entries are not always repeated. Where two headings read alike, the source gives them in different places.

How the values were obtained:
[1] = target: T1, human CD27 (transmembrane protein) on the cell membrane (human, UniProt P26842 20-260); assay: flow cytometry on CHO cells expressing human CD27
T1 construct: whole, on cells; One molecule is used for CD27 on CHO-CD27 cells, on human PBMC T and B cells and on Jurkat reporter cells; also called CHO-CD27
T1 sequence (looked up): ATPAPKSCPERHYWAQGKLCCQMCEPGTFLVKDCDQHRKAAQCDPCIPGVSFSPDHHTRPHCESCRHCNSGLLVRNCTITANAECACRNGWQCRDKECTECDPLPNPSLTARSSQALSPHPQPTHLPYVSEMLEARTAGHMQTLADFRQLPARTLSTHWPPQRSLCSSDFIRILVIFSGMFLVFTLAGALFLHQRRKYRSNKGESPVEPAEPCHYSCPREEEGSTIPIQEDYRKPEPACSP

[2] = target: T2, CD27-mFc (Kangdai) (human, UniProt P26842 21-192, limits assumed); assay: competition ELISA: CD70 coated, CD27-mFc 4.3 µg/mL plus antibody dilutions; competitor CD70
T2 construct: Bought reagent; also called antigen CD27-mFc; solid-phase human CD27; not shown: mouse Fc (mFc)
T2 sequence (looked up): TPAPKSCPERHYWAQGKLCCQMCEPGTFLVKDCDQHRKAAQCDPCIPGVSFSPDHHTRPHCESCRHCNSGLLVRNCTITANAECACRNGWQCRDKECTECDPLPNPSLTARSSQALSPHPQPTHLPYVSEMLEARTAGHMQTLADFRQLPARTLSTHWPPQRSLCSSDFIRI

[3] = target: T3, antigen CD27 (soluble, as used in the BLI and SPR experiments) (UniProt P26842 21-192, limits assumed); assay: SPR, Biacore T200, CM5 chip
T3 sequence (looked up): T2 sequence (looked up)

[4] = target: T2, CD27-mFc (Kangdai); assay: ELISA on coated CD27-mFc
[5] = target: T3, antigen CD27 (soluble, as used in the …); assay: BLI, antibody captured on AHC probe, CD27 in solution
[6] = target: T2, CD27-mFc (Kangdai); assay: competition ELISA: CD70 coated, CD27-mFc plus antibody dilutions; competitor CD70
[7] = target: T2, CD27-mFc (Kangdai); assay: ELISA on coated CD27-mFc; remark: listed apart in the source

B1: 13B3-hFc human-mouse chimeric CD27 monoclonal antibody (antibody, V domains shown)
VH: QVQLQQSGPEQVKPGASVKISCKTSGYAFSQSWMNWVKQRPGQGLEWIGRIYPGDGDTNYNGIFKGKATLTADKSSSTAYMQLSSLTSLDSAVYFCASMIRTTYVMDHWGQGTSVTVTS
VL: DIVLTQSPATLSVTPGDSVSLSCRASQSVSNSLHWYQQKSHESPRLLIMYTSQSISGIPSRFSGSGSGTDFTLSINSVETEDFGMYFCQQSNSWPLTFGAGTKLELK
notes: Mouse 13B3 variable regions on human constant regions (expression vectors P378 and P379, made in 293F cells)
EC50 [1]: 2.49 µg/mL | IC50 [2]: 1.47 µg/mL | Kd [3]: 0.781 nM | koff [3]: 0.000954 s⁻¹ | kon [3]: 1.22e+06 M⁻¹ s⁻¹ | EC50 [4]: 0.0344 µg/mL | Kd [5]: 1.23 nM | koff [5]: 0.000222 s⁻¹ | kon [5]: 181000 M⁻¹ s⁻¹ | IC50 [6]: 2.06 µg/mL and 13.8 nM | EC50 [7]: 0.0503 µg/mL and 0.337 nM
